US20220220224A1 (Hoffmann-La Roche, published 2022)
Where two headings read alike, the source gives them in different places.

Columns and labels:
[1] = target: T1, human FolR1 expressed on cells (HeLa, SKOV3, HT-29, transfected HEK cells) (human, UniProt P15328 25-234); assay: flow cytometry on transfected HEK cells
T1 construct: whole, on cells; also called FolR1 on HeLa cells; human FolR1 on cells

[2] = target: T2, recombinant biotinylated monomeric Fc fusion of murine Folate Receptor 1 (mu FolR1 ECD-AcTev-Fcknob-Avitag … (murine, UniProt P0DOX5 223-449 = IgG part, biotin on the C-terminal Avi tag)); assay: SPR Biacore, avidity (bivalent, apparent KD), antigen-Fc on SA chip
T2 construct: also called muFolR1-Fc; murine FolR1
Description: (§1) The avidity of the interaction between the anti-FolR1 IgG or T cell bispecifics and the recombinant folate receptors was determined as described below (Table 25).
(§2) Recombinant biotinylated monomeric Fc fusions of human, cynomolgus and murine Folate Receptor 1 (FolR1-Fc) were directly coupled on a SA chip using the standard coupling instruction (Biacore, GE Healthcare). The immobilization level was about 300-400 RU. The anti-FolR1 IgGs or T cell bispecifics were passed at a concentration range from 3.7 to 900 nM with a flow of 30 μL/minutes through the flow cells over 180 seconds. The dissociation was monitored for 240 or 600 seconds. The chip surface was regenerated after every cycle using a double injection of 30 sec 10 mM Glycine-HCl pH 2. Bulk refractive index differences were corrected for by subtracting the response obtained on reference flow cell immobilized with recombinant biotinylated murine CD134 Fc fusion. The binding curves resulting from the bivalent binding of the IgG or T cell bispecifics were approximated to a 1:1 Langmuir binding (even though it is a 1:2 binding) and fitted with that model to get an apparent KD representing the avidity of the bivalent binding. The apparent avidity constants for the interactions were derived from the rate constants of the fitting using the Bia Evaluation software (GE Healthcare). For the 1+1 T cell bispecifics format the interaction is a real 1:1 and the KD represents affinity since there is only one FolR1 binder in this construct.

[3] = target: T3, recombinant biotinylated monomeric Fc fusion of cynomolgus Folate Receptor 1 (cy FolR1 ECD-AcTev-Fcknob-Avi … (cynomolgus, UniProt P0DOX5 223-449 = IgG part, biotin on the C-terminal Avi tag)); assay: as above
T3 construct: also called cyFolR1-Fc; cyno FolR1
Description: as §1, §2

[4] = target: T4, recombinant biotinylated monomeric Fc fusion of human Folate Receptor 1 (huFolR1 ECD-AcTev-Fcknob-Avi tag … (human, UniProt P0DOX5 223-449 = IgG part, biotin on the C-terminal Avi tag)); assay: as above
T4 construct: also called huFolR1-Fc; human FolR1-Fc
Description: as §1, §2

[5] = target: T2, recombinant biotinylated monomeric Fc …; assay: as above; remark: listed apart in the source
Description: (§3) Binding of FolR1 binders as IgG or in the T-cell bispecific format to different recombinant folate receptors (human FolR1, 2 and 3, murine FolR1 and cynomolgus FolR1; all as Fc fusions) was assessed by surface plasmon resonance (SPR). All SPR experiments were performed on a Biacore T200 at 25° C. with HBS-EP as running buffer (0.01 M HEPES pH 7.4, 0.15 M NaCl, 3 mM EDTA, 0.005% Surfactant P20, Biacore, Freiburg/Germany).
(§4) Recombinant biotinylated monomeric Fc fusions of human, cynomolgus and murine Folate Receptor 1 (FolR1-Fc) were directly coupled on a SA chip using the standard coupling instruction (Biacore, Freiburg/Germany). The immobilization level was about 300-400 RU. The anti-FolR1 IgGs or T cell bispecifics were passed at a concentration range from 2.1 to 500 nM with a flow of 30 μL/minutes through the flow cells over 180 seconds. The dissociation was monitored for 600 seconds. Bulk refractive index differences were corrected for by subtracting the response obtained on reference flow cell immobilized with recombinant biotinylated IL2 receptor Fc fusion. […] The binding curves resulting from the bivalent binding of the IgGs or T cell bispecifics were approximated to a 1:1 Langmuir binding and fitted with that model (which is not correct, but gives an idea of the avidity). The apparent avidity constants for the interactions were derived from the rate constants of the fitting using the Bia Evaluation software (GE Healthcare).

[6] = target: T3, recombinant biotinylated monomeric Fc …; assay: as above; remark: listed apart in the source
Description: as §3, §4

[7] = target: T4, recombinant biotinylated monomeric Fc …; assay: as above; remark: listed apart in the source
Description: as §3, §4

[8] = target: T5, recombinant biotinylated monomeric Fc fusion of human Folate Receptor 2 (hu FolR2 ECD-AcTev-Fcknob-Avi tag … (human, UniProt P0DOX5 223-449 = IgG part, biotin on the C-terminal Avi tag)); assay: SPR Biacore, single injection on immobilized antigen-Fc
T5 construct: also called FolR2-Fc
Method in brief: (§5)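 Biacore T200 at 25 °C in HBS-EP (HEPES pH 7.4). Biotinylated FolR-Fc fusions captured on SA chip at about 300-400 RU. IgGs injected once at 500 nM for 60 s to assess cross-reactivity and specificity.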

[9] = target: T6, recombinant biotinylated monomeric Fc fusion of human Folate Receptor 3 (hu FolR3 ECD-AcTev-Fcknob-Avi tag … (human, UniProt P0DOX5 223-449 = IgG part, biotin on the C-terminal Avi tag)); assay: as above
T6 construct: also called FolR3-Fc
Method in brief: as §5

T1 sequence (P15328 25-234): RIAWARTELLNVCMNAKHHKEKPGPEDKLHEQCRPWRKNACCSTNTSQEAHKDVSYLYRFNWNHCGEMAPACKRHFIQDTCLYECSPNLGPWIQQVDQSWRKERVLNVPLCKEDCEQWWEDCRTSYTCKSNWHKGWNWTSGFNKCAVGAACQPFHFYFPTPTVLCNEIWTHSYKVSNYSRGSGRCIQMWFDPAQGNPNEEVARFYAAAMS

B1: 36F2 IgG (antibody, V domains shown)
VH: QVQLVQSGAEVKKPGASVKVSCKASGYTFTSYYMHWVRQAPGQGLEWMGIINPSGGSTSYAQKFQGRVTMTHDTSTSTVYMELSSLRSEDTAVYYCARSFFTGFHLDYWGQGTLVTVSS
VL: EIVLTQSPGTLSLSPGERATLSCRASQSVSSSYLAWYQQKPGQAPRLLIYGASSRATGIPDRFSGSGSGTDFTLTISRLEPEDFAVYYCQQYTNEHYYTFGQGTKVEIK
- binding result [1]: binds
- Kd [2]: 2 nM
- koff [2]: 0.000823 s⁻¹
- kon [2]: 428000 M⁻¹ s⁻¹
- Kd [3]: 6 nM
- koff [3]: 0.0175 s⁻¹
- kon [3]: 2.78e+06 M⁻¹ s⁻¹
- Kd [4]: 6 nM
- koff [4]: 0.013 s⁻¹
- kon [4]: 2.07e+06 M⁻¹ s⁻¹
- Kd [5]: 1.63 nM
- koff [5]: 0.000603 s⁻¹
- kon [5]: 370000 M⁻¹ s⁻¹
- Kd [6]: 5.31 nM
- koff [6]: 0.016 s⁻¹
- kon [6]: 3.02e+06 M⁻¹ s⁻¹
- Kd [7]: 5.74 nM
- koff [7]: 0.0151 s⁻¹
- kon [7]: 2.62e+06 M⁻¹ s⁻¹
- binding result [8]: no binding (tested: 500 nM)
- binding result [9]: no binding (tested: 500 nM)
